Assay results taken from US20210246166A1 (Bayer, published 2021).
Bridge positions count the residues as written; N and C are the ends. Square brackets hold non-standard residues; d marks the D form. Ends that are not written are not given here. * marks the point of attachment. Oic = O=C(O)[C@@H]1C[C@@H]2CCCC[C@@H]2N1; Butanoyl(3,3-Me2) = CC(C)(C)CC(=O)*; aIle = CC[C@@H](C)[C@H](N)C(=O)O; tBuAla = CC(C)(C)C[C@H](N)C(=O)O; Pen = CC(C)(S)[C@H](N)C(=O)O; NMeC = CN[C@@H](CS)C(=O)O; Sar = CNCC(=O)O

T1: recombinant human MASP1 active protease (amino acids 297-699, C-terminal His Tag) (human, UniProt P48740 297-699)
T1 sequence: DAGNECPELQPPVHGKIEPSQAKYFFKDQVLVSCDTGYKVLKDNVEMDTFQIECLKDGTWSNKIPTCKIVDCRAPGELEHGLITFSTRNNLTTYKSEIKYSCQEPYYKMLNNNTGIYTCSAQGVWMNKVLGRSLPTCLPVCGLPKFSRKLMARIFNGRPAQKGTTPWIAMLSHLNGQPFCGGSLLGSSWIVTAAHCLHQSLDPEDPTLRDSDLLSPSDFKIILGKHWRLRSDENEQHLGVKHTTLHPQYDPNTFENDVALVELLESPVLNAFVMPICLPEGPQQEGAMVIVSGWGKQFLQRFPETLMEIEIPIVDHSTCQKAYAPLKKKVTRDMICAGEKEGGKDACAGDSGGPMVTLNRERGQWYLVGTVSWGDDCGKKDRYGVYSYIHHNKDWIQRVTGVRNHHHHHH

B1: Example 326: AIC+SRSLP-(3,3-dimethyl-1,3-azasilolidine-5-carboxylic acid)-IC+IPD-NH2 (peptide)
peptide: AICSRSLP[3,3‑dimethyl‑1,3‑azasilolidine‑5‑carboxylic acid]ICIPD-NH2
modifications: disulfide 3-11
B2: Example 329: ((N-Me)G)-IC+SRSLPPIC+I-((N-Me)G)-D-OH (peptide)
peptide: [Sar]ICSRSLPPICI[Sar]D-OH
modifications: disulfide 3-11; N-terminus assumed
SMILES: CC[C@H](C)[C@H](NC(=O)CNC)C(=O)N[C@H]1CSSC[C@@H](C(=O)N[C@H](C(=O)N(C)CC(=O)N[C@@H](CC(=O)O)C(=O)O)[C@@H](C)CC)NC(=O)[C@H]([C@@H](C)CC)NC(=O)[C@@H]2CCCN2C(=O)[C@@H]2CCCN2C(=O)[C@H](CC(C)C)NC(=O)[C@H](CO)NC(=O)[C@H](CCCNC(=N)N)NC(=O)[C@H](CO)NC1=O
B3: Example 331: A-(allo-I)C+SRSLPPIC+IPD-NH2 (peptide)
peptide: A[aIle]CSRSLPPICIPD-NH2
modifications: disulfide 3-11; N-terminus assumed
SMILES: CC[C@@H](C)[C@H](NC(=O)[C@H](C)N)C(=O)N[C@H]1CSSC[C@@H](C(=O)N[C@H](C(=O)N2CCC[C@H]2C(=O)N[C@@H](CC(=O)O)C(N)=O)[C@@H](C)CC)NC(=O)[C@H]([C@@H](C)CC)NC(=O)[C@@H]2CCCN2C(=O)[C@@H]2CCCN2C(=O)[C@H](CC(C)C)NC(=O)[C@H](CO)NC(=O)[C@H](CCCNC(=N)N)NC(=O)[C@H](CO)NC1=O
B4: Example 333: (tert-Butylacetic acid)-IC+SRS-((tBu)A)-PPI-((N-Me)C)+I-NH2 (peptide)
peptide: {Butanoyl(3,3-Me2)}-ICSRS[tBuAla]PPI[NMeC]I-NH2
modifications: disulfide 2-10
SMILES: CC[C@H](C)[C@H](NC(=O)[C@@H]1CSSC[C@H](NC(=O)[C@@H](NC(=O)CC(C)(C)C)[C@@H](C)CC)C(=O)N[C@@H](CO)C(=O)N[C@@H](CCCNC(=N)N)C(=O)N[C@@H](CO)C(=O)N[C@@H](CC(C)(C)C)C(=O)N2CCC[C@H]2C(=O)N2CCC[C@H]2C(=O)N[C@@H]([C@@H](C)CC)C(=O)N1C)C(N)=O
B5: Example 335: ((tBu)A)-IC+SRSLP-(Oic)-I-(Pen)+IP-OH (peptide)
peptide: [tBuAla]ICSRSLP[Oic]I[Pen]IP-OH
modifications: disulfide 3-11; N-terminus assumed
SMILES: CC[C@H](C)[C@H](NC(=O)[C@@H](N)CC(C)(C)C)C(=O)N[C@H]1CSSC(C)(C)[C@@H](C(=O)N[C@H](C(=O)N2CCC[C@H]2C(=O)O)[C@@H](C)CC)NC(=O)[C@H]([C@@H](C)CC)NC(=O)[C@@H]2C[C@@H]3CCCC[C@@H]3N2C(=O)[C@@H]2CCCN2C(=O)[C@H](CC(C)C)NC(=O)[C@H](CO)NC(=O)[C@H](CCCNC(=N)N)NC(=O)[C@H](CO)NC1=O
B6: Example 336: IC+SRSLP-(Oic)-I-(Pen)+IP-NH2 (peptide)
peptide: ICSRSLP[Oic]I[Pen]IP-NH2
modifications: disulfide 2-10; N-terminus assumed
SMILES: CC[C@H](C)[C@H](N)C(=O)N[C@H]1CSSC(C)(C)[C@@H](C(=O)N[C@H](C(=O)N2CCC[C@H]2C(N)=O)[C@@H](C)CC)NC(=O)[C@H]([C@@H](C)CC)NC(=O)[C@@H]2C[C@@H]3CCCC[C@@H]3N2C(=O)[C@@H]2CCCN2C(=O)[C@H](CC(C)C)NC(=O)[C@H](CO)NC(=O)[C@H](CCCNC(=N)N)NC(=O)[C@H](CO)NC1=O
B7: Example 337: AIC+SRS-((2S)-2-Amino-4,4,4-trifluorobutanoic acid)-PPI-((N-Me)C)+IPD-NH2 (peptide)
peptide: AICSRS[(2S)‑2‑Amino‑4,4,4‑trifluorobutanoic acid]PPI[NMeC]IPD-NH2
modifications: disulfide 3-11
B8: Example 338: ((2S,3S)-2-[(3R)-3-Amino-2-oxopyrrolidin-1-yl]-3-niethylpentanoic acid)-C+SRSLPPIC+IAD-OH (peptide)
peptide: [(2S,3S)‑2‑((3R)-3-Amino-2-oxopyrrolidin-1-yl)‑3‑methylpentanoic acid]CSRSLPPICIAD-OH
modifications: disulfide 2-10

The binders below were run against T1, recombinant human MASP1 active protease … (assay: cell-based or functional assay).

Row | Binder | human MASP1 IC50 [nM]
1 | B1 | 23
2 | B2 | 24
3 | B3 | 24
4 | B4 | 25
5 | B5 | 25
6 | B6 | 25
7 | B7 | 25
8 | B8 | 26

What follows are binders tested against recombinant human MASP2 active protease (amino acids 297-686, C-terminal His Tag) (human, UniProt O00187 297-686) (assay: cell-based or functional assay).
Sequence of recombinant human MASP2 active protease (amino acids 297-686, C-terminal His Tag) (O00187 other isoform, or with tags, fused parts or gaps limits assumed): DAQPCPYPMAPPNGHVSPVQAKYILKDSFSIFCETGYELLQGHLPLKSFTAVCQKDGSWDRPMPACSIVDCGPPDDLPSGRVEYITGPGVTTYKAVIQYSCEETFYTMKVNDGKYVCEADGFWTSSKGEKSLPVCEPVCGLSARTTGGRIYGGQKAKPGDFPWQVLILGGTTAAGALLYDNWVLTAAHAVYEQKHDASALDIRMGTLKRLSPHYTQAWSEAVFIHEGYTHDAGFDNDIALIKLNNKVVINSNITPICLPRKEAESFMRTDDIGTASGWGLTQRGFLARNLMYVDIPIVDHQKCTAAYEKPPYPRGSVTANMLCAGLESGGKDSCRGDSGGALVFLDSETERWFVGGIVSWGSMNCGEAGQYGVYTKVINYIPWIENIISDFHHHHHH

Row | Binder | human MASP2 IC50 [nM]
9 | B1 | 710
10 | B2 | 260
11 | B3 | 610
12 | B4 | 8.4
13 | B5 | 180
14 | B6 | 690
15 | B7 | 2000
16 | B8 | 360
